The data set can be described thus: yeast display, Sf9 membrane polyspecificity reagent, FACS + sequencing; frameworks hold sequencing errors. In a few lines:
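Nanobodies from a synthetic yeast display library (Saccharomyces cerevisiae BJ5465), induced 36–48 hours with galactose, were stained 1 hour at 4 °C with 10% biotinylated, detergent-solubilized Sf9 membrane reagent, enriched on streptavidin microbeads, then FACS-sorted. Anti-HA (expression) and streptavidin (reagent binding) fluorescence set low and high (top ~1%) gates. Polyreactivity labels come from the gate of origin. Genes were colony-PCR amplified, MiSeq 2 × 250 sequenced and filtered by CDR length.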
Consider “QVQLVESGGGLVQAGGSLRLSCAASGRTFIYNAMGWYRQAPGKERELVAAISTSGGRTYYADSVKGRFTISRDNAKNTVYLQMNSLKPEDTAVYYCNAVRSYRMDYWGQGTQVTVSS”, for which the “polyreactivity (PSR sort gate)” value is “high polyreactivity”.
As for “QVQLVESGGGLVQAGGSLRLSCAASGRTFIYYAMGWYTQAPRKERDYVAIITWNGTSTNYADSVKGRFTISRDNAKNTVYLQMNSLYPEDTAVYYCAASFWTDYYRYDYWGQGTQVTVSS”, the “polyreactivity (PSR sort gate)” value was “low polyreactivity”.
The entry for “QVQLVESGGGLVQAGGSLRLSCAASGRTFKAYAMGWYRQAPGKERELVAAISYSTTSTYYADSVKGRFTISRDNAKNTVYLQMNSLKPEDTAVYYCAVDYIIWYDGYLLYYWGQGTQVTVSS” is “low polyreactivity”; for “QVQLVESGGGLVQAGGSLRLSCAASGRTFKDYAMGWYRPAPGKERELFAAISRGGSTNYADSVKGRFTISRDNAKNTVYLQVNSLKPEDTAVYYCARRYIVQSGDDYWGQGTQVTVSS” it is “low polyreactivity”; for “QVQLVESGGGLVQAGGSLRLSCAASGRTFKFYAMGWYRQAPGKERELVAAITSDGSTYYADSVKGRFTISRDNAKNTVYLQMNSQKPEDTAVYYCAKRSNTGRGYDYWGQGTQVTVSS” it is “high polyreactivity”.
As to “QVQLVESGGGLVQAGGSLRLSCAASGRTFKFYAMGWYRQAPGKERELVARITSNSGSTYYADSVKGRFTISRDTAKNTVYLQMTSLKPEDTAVYYCAVRGTLGSYWYTYYYWGQGTQVTVSS”, the “polyreactivity (PSR sort gate)” value was “high polyreactivity”.
As to “QVQLVESGGGLVQAGGSLRLSCAASGRTFKHYAMGWYRQAPGKERELVAAITSGGSTYYADSVKGRFTISRDNAKNTVYLLMNSLIPEDTAVYYCNKESYFDTYRRYDSWGHGTQVTVSS”, the “polyreactivity (PSR sort gate)” value is reported as “low polyreactivity”.
The entry for “QVQLVESGGGLVQAGGSLRLSCAASGRTFKIHAMGWYRQATGKERELVAAISTSGGSTYYADSVKGRLTISRDNAKNTVYLQMNSLKPEDTAVYYCNAPVFRVGRPEYDYWGQGTQVTVSS” is “high polyreactivity”; for “QVQLVESGGGLVQAGGSLRLSCAASGRTFKINAMGWYRPAPGKERELVAAISRGGGSTYADSVKGRFTISRDNAKNTVYLQMNSLKPEDTAVYYCAARVYGTRKINYSWGQGTQVTVSS” it is “high polyreactivity”; for “QVQLVESGGGLVQAGGSLRLSCAASGRTFKINAMGWYRQAPGKERELVAAIRRRGGSTYYADSVKGRFTISRDNAKNTVYLQMNSLKPEDTAVYYCAKTSWPYRVPSDSVAYDYWGQGTQVTVSS” it is “low polyreactivity”.
With “QVQLVESGGGLVQAGGSLRLSCAASGRTFKIYTMGWYRPAPGKERELVAAISRGGSTYYADSVKGRFTISRDNAKNTVYLQMNSLKPEDTAVYYCAVDLYYLSSASTRQVRRDYWGQGTQVTVSS”, the “polyreactivity (PSR sort gate)” value is recorded as “high polyreactivity”.
For “QVQLVESGGGLVQAGGSLRLSCAASGRTFKLYAMGWYRQAPGKERALVAAITESGGSTYYADSVKGRFTISRDNAKNTVYLQMNSLKPEDTAVYYCAAYASAGTRGGYDYWGQGTQVTVSS”, the “polyreactivity (PSR sort gate)” value is on record as “low polyreactivity”.
The entry for “QVQLVESGGGLVQAGGSLRLSCAASGRTFKPYAMGWYRPAPGKDRELVAAISTRGGSTYFADSVKGRFTISRDNAKNTVYLQMNSLKPEDTAVYYCAATQPVRDYDYWGQGTQVTVSS” is “low polyreactivity”; for “QVQLVESGGGLVQAGGSLRLSCAASGRTFKPYAMGWYRQAPGKERELVAAISTGGSTNYADSVKGRFTISRDNAKNTVYLQMKSLKPEDTAVYYCAALYSYFWLIIDYGYWGQGTQVTVSS” it is “low polyreactivity”; for “QVQLVESGGGLVQAGGSLRLSCAASGRTFKPYAMGWYRQAPGKERELVAVITSNGSSTYYADSVKGRFTISRDNAKNTVYLQMNSLKPEDTAVYYCATKLTYTLTSGAYAYDYWGQGTQVTLSS” it is “low polyreactivity”.
Turning to “QVQLVESGGGLVQAGGSLRLSCAASGRTFKQYAMGWYRQAPGKERELVAAISRTGGRTYYADSVKGRFTISRDNAKNTVYLQMNSLKPEDTAVYYCNAVYYWYKGDYWGQGTQVTVSS”, the “polyreactivity (PSR sort gate)” value is recorded as “high polyreactivity”.
With “QVQLVESGGGLVQAGGSLRLSCAASGRTFKRYAMGWYRQAPGKERELVAVITSGGSTYYADSVKGRFTISRDNAKNTVYLQMNSLKPEDTAVYYCAARYGVRIWHDALYGYWGQGTQVTVSS”, the “polyreactivity (PSR sort gate)” value is recorded as “high polyreactivity”.
For the sequence “QVQLVESGGGLVQAGGSLRLSCAASGRTFKTYSMGWYRQAPGKERELVASISGSGSSTYYADSVKGRFTISRDNAKNSVYLQMKSRKPEDTAVYYCNAARSQGYEYATYGYWGQGTQVTVSS”, the “polyreactivity (PSR sort gate)” value was “low polyreactivity”.
Take “QVQLVESGGGLVQAGGSLRLSCAASGRTFKTYVMGWYRQAPGKERELVAGITSGGGSTYYADSVKGRFTISRDNAKITVYLQMNSLKPEDTAVYYCAAVSKDGFWVSYYYWGQGTQVTVSS”: the “polyreactivity (PSR sort gate)” value is recorded as “high polyreactivity”.
As to “QVQLVESGGGLVQAGGSLRLSCAASGRTFKVNAMGWYRQAPGKERELVAAITYSGGGTYYADSVKGRFTISRDNAKNTVYLQMNSLKPEDTAVYYCAAPVYTWYHRYDYWGQGTQVTVSS”, the “polyreactivity (PSR sort gate)” value is “high polyreactivity”.
Consider “QVQLVESGGGLVQAGGSLRLSCAASGRTFKVYAMGWYRQAPWKERDLVAAISFSGGSTYYADSVKGRFTISRDNAKNTDYLQMNSLKPEDTAVYYCAAKRYGEYRARGYYYWGQVTQVTVSS”, for which the “polyreactivity (PSR sort gate)” value is on record as “high polyreactivity”.
“QVQLVESGGGLVQAGGSLRLSCAASGRTFKYNAMGWYIQAPGKERELVAAISSRGGSTYYADSVKGRFTISRDNAKNTVYLQMNSLKPEDTAVYYCAKATSSSEYGYDYWGQGTQVTVSS”: the “polyreactivity (PSR sort gate)” value is given as “high polyreactivity”.
Regarding “QVQLVESGGGLVQAGGSLRLSCAASGRTFKYNAMGWYRQAPGKERELVAAISNRGGSTYYADSVKGRFTISRDNAKNTVYLQMNSLKPEDTAVYYCAVRAVYRWSSGYGYWGQGTQVTVSS”, the “polyreactivity (PSR sort gate)” value is given as “high polyreactivity”.
The entry for “QVQLVESGGGLVQAGGSLRLSCAASGRTFKYNAMGWYRQAPGKERELVAVISYDGSTYYADSVKGRFTISRDNAKNTVYLQMNSLKPEDTAVYYCAARYLDVRPYYYWGQGTQVTVSS” is “high polyreactivity”.
With “QVQLVESGGGLVQAGGSLRLSCAASGRTFKYYAMGWYRQAPGKERELVAAISSGGSTYYADSVKGRFTISRDNAKNTVYLQMNSLKPEDTAVYYCAAYSSYFRRRKWGYDYWGQGTQVTVSS” the entry was “high polyreactivity”; with “QVQLVESGGGLVQAGGSLRLSCAASGRTFKYYAMGWYRQAPGKERELVAAISWSGSSTNYADSVKGRFTISRDNAKNTVYLQMNSLKPEDTAVYYCAAATYRQFTGTYDYWGQGTQVTVSS”, “high polyreactivity”; with “QVQLVESGGGLVQAGGSLRLSCAASGRTFKYYAMGWYRQAPGKERELVAGITGRGGGTYYADSVKGRFTISRDNAKNTVYLQMNSLKPEDTAVYYCAAERIYWKYYEYDYWGQGTEVTVSS”, “high polyreactivity”.
Take “QVQLVESGGGLVQAGGSLRLSCAASGRTFKYYTMGWYRQAPGKERELVAAISASGGSTYYADSVKGRFTISRDNAKNTVYLQMNSLKPEDTAVYYCAKGANRAIHKQPTRSRLDSWGQGTQVTVSS”: the “polyreactivity (PSR sort gate)” value is “high polyreactivity”.
With “QVQLVESGGGLVQAGGSLRLSCAASGRTFLFNGMGWYRQAPGKERELVASITRGGSTYADSVKGRFTISRDNAKNTGYVQMNSLNPEDTAVYDCNAYFWFPYNYWGQGTQVTVSS” the entry was “high polyreactivity”.
In the case of “QVQLVESGGGLVQAGGSLRLSCAASGRTFLGYAMGCYRQAPGKERELVATITKRGSSTYYADSVKGRFTISRDNANNTVYLQMTSLKPEDTAVYYCAARRYPRRFAIDYWGQGTQVTVSS”, the “polyreactivity (PSR sort gate)” value was “high polyreactivity”.
The entry for “QVQLVESGGGLVQAGGSLRLSCAASGRTFLIYAMGWYRQAPGKERELVAAINFSGGNTYYADSVKGRFTISRDNAKNTVYLQMNSLKPEDTAVYYCAARYRIGNNGYEYWGQGTQVTVSS” is “low polyreactivity”.
On to “QVQLVESGGGLVQAGGSLRLSCAASGRTFLLNAMGWYRQAPGKERELVAAITRSGVITYYADSVKGRFTISRDNAKNTVYLQMNSLKPEDTAVYYCAAQLRYSYLRPSYYYWGQGTQVTVSS”, for which the “polyreactivity (PSR sort gate)” value is “high polyreactivity”.
With “QVQLVESGGGLVQAGGSLRLSCAASGRTFLLYAMGWYRQAPGKERELVAAITWGGGSTYYADSVKGRFTISRDNAKNTVYLQMNSLKPEDTAVYYCAADGSWHGYGYWGQGTQVTVSS”, the “polyreactivity (PSR sort gate)” value is listed as “low polyreactivity”.
In the case of “QVQLVESGGGLVQAGGSLRLSCAASGRTFLPYAMGWYRQPPWKERELVAAISYRGVSTYYADSVKGRFTISRDNAKYSVYLQMNSLKAEDTAVYYCAARSWANYDFWGHGTQVTVSS”, the “polyreactivity (PSR sort gate)” value is listed as “high polyreactivity”.
The entry for “QVQLVESGGGLVQAGGSLRLSCAASGRTFLRNAMGWYRPAPGKERELVAAITSSGGRTYYADSVKGRFTISRDNAKNTVYLQMNSLKPEDTAVYYCATDTGWPGRDYWGQGPQVTVSS” is “high polyreactivity”; for “QVQLVESGGGLVQAGGSLRLSCAASGRTFLRYAMGWYRQAPGKERELVAAITYGGRTNYADSVKGRFTISRDNAKNTVYLQMNSLKPEDTAVYYCAADRTYYYGLRVYYWGQGTQVTVSS” it is “high polyreactivity”; for “QVQLVESGGGLVQAGGSLRLSCAASGRTFLSNAMGWYRQEPGKERELVAAINSGDSTYYAYSVKGRFTISRYNAKNTVYLQMNSLKPEDTAVYYCAAAFYYRRMYYWGKGTQVTVSS” it is “high polyreactivity”.
“QVQLVESGGGLVQAGGSLRLSCAASGRTFLSYAMGWYRQAPGKEREFVASITLSGGSTYYADSVKGRFTISRDNAKNTVYLQMNSLKPEDTAVYYCNAELYWLPYDYWGQGTQVTVSS”: the “polyreactivity (PSR sort gate)” value is “low polyreactivity”.
Turning to “QVQLVESGGGLVQAGGSLRLSCAASGRTFLSYAMGWYRQAPGKERELVATITRRGGSTYYADSVKGRFTISRDNAKNTVYLQMNSLKPEDTAVYYCAAYYRQYSSSEFGYWGQGTQVTVSS”, the “polyreactivity (PSR sort gate)” value is recorded as “high polyreactivity”.
Turning to “QVQLVESGGGLVQAGGSLRLSCAASGRTFLSYTMGWYRQATGKERELVAAITTSGGSTNYADSVKGRFSISRDTAKNTVYLQMNRLKPEDTAVYYCADEWSVYFNDPRSDYWGQGTQVTVSS”, the “polyreactivity (PSR sort gate)” value is on record as “high polyreactivity”.
The entry for “QVQLVESGGGLVQAGGSLRLSCAASGRTFLTYAMGWYRQAPGKERELVAAITDGDSTNYADSVKGRFTISRDNAKNTVYLQMNSLKPEDTAVYYCNADSLAYRYYYWGKGTQVTVSS” is “high polyreactivity”.

Values taken from the nanobody polyreactivity screen of Harvey et al. (2022).
